In patent US20130196415:

Tested on: fibrin

trypsin (EC3.4.21.4, manufactured by Wako Pure Chemical Industries, Ltd.)
digestion circle on fibrin-containing solid medium (fibrinolytic activity assay, protease at FLV 111, overnight at 37° C.): a digestion circle was observed for trypsin
